Values quoted from earlier work as cited in US9163073B2, “Chemically and thermodynamically stable insulin analogues and improved methods for their production” (AMIDEBIO LLC, priority 2013, dated 2015).

Assays:
breast cancer = conditions: in vivo
[1] = after one year in acidic formulations
[2] = target: insulin receptor over the IGF-1R (Homo sapiens, UniProt P06213)

Row | Substance | induction of breast cancer (breast cancer) | AsnA21 deamidation [1] | selectivity for its own receptor over the IGF-1R [2] [fold]
1 | AspB10 insulin: insulin analogue with AspB10 substitution, relatively high affinity for the IGF-1R | induce breast cancer | – | –
2 | native insulin: native two-chain human insulin (A chain SEQ ID NO 2, B chain SEQ ID NO 3) | – | 20-30% | > 100
